Biological target: biotinylated peptide comprising the NH2-terminal 73 amino acids of GM130 (N73pep) (UniProt Q62839)
Experiment: pull-down

- percent of p115 depleted from cytosol: > 95%
B1: p115, vesicle tethering protein (natural protein)
chain: MNFLRGVMGGQSAGPQHTEAETIQKLCDRVASSTLLDDRRNAVRALKSLSKKYRLEVGIQAMEHLIHVLQTDRSDSEIIAYALDTLYNIISNDEEEEVEENSTRQSEDLGSQFTEIFIKQPENVTLLLSLLEEFDFHVRWPGVRLLTSLLKQLGPPVQQIILVSPMGVSKLMDLLADSREIIRNDGVLLLQALTRSNGAIQKIVAFENAFERLLDIITEEGNSDGGIVVEDCLILLQNLLKNNNSNQNFFKEGSYIQRMKAWFEVGDENPGWSAQKVTNLHLMLQLVRVLVSPTNPPGATSSCQKAMFQCGLLQQLCTILMATGIPADILTETINTVSEVIRGCQVNQDYFASVNAPSNPPRPAIVVLLMSMVNERQPFVLRCAVLYCFQCFLYKNEKGQGEIVATLLPSTIDATGNSVSAGQLLCGGLFSTDSLSNWCAAVALAHALQGNATQKEQLLRVQLATSIGNPPVSLLQQCTNILSQGSKIQTRVGLLMLLCTWLSNCPIAVTHFLHNSANVPFLTGQIAENLGEEEQLVQGLCALLLGISIYFNDNSLENYTKEKLKQLIEKRIGKENYIEKLGFISKHELYSRASQKPQPNFPSPEYMIFDHEFTKLVKELEGVITKAIYKSSEEDKKEEEVKKTLEQHDNIVTHYKNMIREQDLQLEELKQQVSTLKCQNEQLQTAVTQQASQIQQHKDQYNLLKVQLGKDNHHQGSHSDGAQVNGIQPEEISRLREEIEELRSHQVLLQSQLAEKDTVIENLRSSQVSGMSEQALATCSPRDAEQVAELKQELSALKSQLCSQSLEITRLQTENSELQQRAETLAKSVPVEGESELVTAAKTTDVEGRLSALLQETKELKNEIKALSEERTAIQKQLDSSNSTIAILQTEKDKLYLEVTDSKKEQDDLLVLLADQDQKILSLKSKLKDLGHPVEEEDESGDQEDDDDELDDGDRDQDI
